According to PMC9482650, “Quantitative fragmentomics allow affinity mapping of interactomes” (Nature Communications, 2022):

T1: GRIP1_3, Q9Y3R0
T1 sequence (Q9Y3R0 247-346, limits assumed, looked up): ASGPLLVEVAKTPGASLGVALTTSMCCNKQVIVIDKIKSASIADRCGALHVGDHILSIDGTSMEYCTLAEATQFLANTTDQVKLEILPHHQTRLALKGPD

T2: DVL3, Q92997
T2 sequence (Q92997 244-331, limits assumed, looked up): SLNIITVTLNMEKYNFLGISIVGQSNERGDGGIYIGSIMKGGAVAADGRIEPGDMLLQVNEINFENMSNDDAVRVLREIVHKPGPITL

T3: NHERF3_4, Q5T2W1
T3 sequence (Q5T2W1 373-468, limits assumed, looked up): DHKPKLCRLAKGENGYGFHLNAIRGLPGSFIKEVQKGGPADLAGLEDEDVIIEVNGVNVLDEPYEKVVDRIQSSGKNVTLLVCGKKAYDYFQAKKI

T4: LRRC7, Q96NW7
T4 sequence (Q96NW7 1440-1537, limits assumed, looked up): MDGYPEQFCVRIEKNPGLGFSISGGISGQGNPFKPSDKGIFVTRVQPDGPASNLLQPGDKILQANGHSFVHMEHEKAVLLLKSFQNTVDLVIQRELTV

T5: TX1BP3, O14907
T5 sequence (O14907 10-122, limits assumed, looked up): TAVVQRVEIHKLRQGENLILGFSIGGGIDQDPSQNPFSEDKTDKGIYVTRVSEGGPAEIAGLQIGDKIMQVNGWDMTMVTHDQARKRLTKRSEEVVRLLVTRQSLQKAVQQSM

T6: MPP7, Q5T2T1
T6 sequence (Q5T2T1 134-230, limits assumed, looked up): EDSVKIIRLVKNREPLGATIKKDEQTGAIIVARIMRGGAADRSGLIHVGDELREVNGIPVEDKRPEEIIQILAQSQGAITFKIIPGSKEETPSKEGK

T7: SNTA1, Q13424
T7 sequence (Q13424 82-180, limits assumed, looked up): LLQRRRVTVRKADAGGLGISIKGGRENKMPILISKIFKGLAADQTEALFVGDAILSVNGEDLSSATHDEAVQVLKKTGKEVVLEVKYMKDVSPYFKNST

T8: NHERF3_3, Q5T2W1
T8 sequence (Q5T2W1 238-333, limits assumed, looked up): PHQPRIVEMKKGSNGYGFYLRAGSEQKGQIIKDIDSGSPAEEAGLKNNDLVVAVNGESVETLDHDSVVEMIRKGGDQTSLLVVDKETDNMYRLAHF

T9: RHPN1, Q8TCX5
T9 sequence (Q8TCX5 508-602, limits assumed, looked up): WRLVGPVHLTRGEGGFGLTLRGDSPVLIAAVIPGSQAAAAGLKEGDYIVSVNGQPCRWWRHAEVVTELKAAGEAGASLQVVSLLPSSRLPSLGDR

T10: PCLO, Q9Y6V0
T10 sequence (Q9Y6V0 4491-4600, limits assumed, looked up): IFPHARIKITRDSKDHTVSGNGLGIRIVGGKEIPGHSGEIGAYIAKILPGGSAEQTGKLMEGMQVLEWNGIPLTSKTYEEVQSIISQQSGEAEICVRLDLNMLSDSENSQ

T11: DLG3_1, Q92796
T11 sequence (Q92796 125-227, limits assumed, looked up): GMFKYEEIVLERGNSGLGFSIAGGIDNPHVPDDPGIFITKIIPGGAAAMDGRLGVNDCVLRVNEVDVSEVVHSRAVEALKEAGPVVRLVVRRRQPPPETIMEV

T12: SYNJ2BP, P57105
T12 sequence (P57105 8-110, limits assumed, looked up): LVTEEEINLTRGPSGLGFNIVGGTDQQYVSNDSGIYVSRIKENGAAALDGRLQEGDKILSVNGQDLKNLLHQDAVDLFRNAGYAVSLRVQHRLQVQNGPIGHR

T13: GRIP1_7, Q9Y3R0
T13 sequence (Q9Y3R0 999-1096, limits assumed, looked up): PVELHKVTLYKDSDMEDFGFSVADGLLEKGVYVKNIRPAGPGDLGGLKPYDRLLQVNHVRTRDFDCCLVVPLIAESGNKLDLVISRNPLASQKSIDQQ

B1: KCNB1, Q14721 (peptide)
chain: AHGSTRDQSI
B2: IGSF5, Q9NSI5 (peptide)
chain: PEKVSNTTVV
B3: SLC22A11, Q9NSA0 (peptide)
chain: EAVTVESTSL
B4: TYRO3, Q06418 (peptide)
chain: QQGLLPHSSC
B5: TMEM178B, H3BS89 (peptide)
chain: KSRPENGTVC
B6: SLC1A7, O00341 (peptide)
chain: IQISELETNV

Assays:
Test in all cases: holdup assay
Set-up in all cases: key: below the threshold = too weak to quantify, mostly under pKd 3.1 to 4
Details in all cases: plain residues with an end cap or a label only (N-terminal biotin on a linker: ado-ado)
[1] = target: MAGI2_4, Q86UL8
[2] = target: T1, GRIP1_3, Q9Y3R0
[3] = target: T2, DVL3, Q92997
[4] = target: T3, NHERF3_4, Q5T2W1
[5] = target: GRIP2_7, Q9C0E4
[6] = target: PDZRN4_1, Q6ZMN7
[7] = target: HTRA1, Q92743
[8] = target: MAST1, Q9Y2H9
[9] = target: T4, LRRC7, Q96NW7
[10] = target: LIMK2, P53671
[11] = target: DLG1_3, Q12959
[12] = target: Inadl_5, Q8NI35
[13] = target: T5, TX1BP3, O14907
[14] = target: T6, MPP7, Q5T2T1
[15] = target: GRID2IP_2, A4D2P6
[16] = target: T7, SNTA1, Q13424
[17] = target: DLG2_3, Q15700
[18] = target: T8, NHERF3_3, Q5T2W1
[19] = target: T9, RHPN1, Q8TCX5
[20] = target: T10, PCLO, Q9Y6V0
[21] = target: T11, DLG3_1, Q92796
[22] = target: T12, SYNJ2BP, P57105
[23] = target: T13, GRIP1_7, Q9Y3R0

Sequence of MAST1, Q9Y2H9 (Q9Y2H9 962-1065): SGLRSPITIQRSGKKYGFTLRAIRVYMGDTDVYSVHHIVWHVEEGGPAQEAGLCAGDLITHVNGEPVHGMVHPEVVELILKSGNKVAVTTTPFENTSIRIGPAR
Sequence of LIMK2, P53671 (P53671 143-248): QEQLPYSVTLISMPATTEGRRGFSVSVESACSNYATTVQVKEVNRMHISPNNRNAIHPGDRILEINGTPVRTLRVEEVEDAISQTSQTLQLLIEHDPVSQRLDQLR
Sequence of GRID2IP_2, A4D2P6 (A4D2P6 272-370): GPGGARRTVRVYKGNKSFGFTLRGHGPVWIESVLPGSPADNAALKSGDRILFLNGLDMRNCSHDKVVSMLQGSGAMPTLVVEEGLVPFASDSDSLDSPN
Sequence of HTRA1, Q92743 (Q92743 360-477): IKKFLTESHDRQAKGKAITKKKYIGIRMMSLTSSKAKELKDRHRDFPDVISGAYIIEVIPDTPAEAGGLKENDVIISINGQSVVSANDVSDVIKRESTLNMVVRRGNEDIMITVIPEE
Sequence of GRIP2_7, Q9C0E4 (Q9C0E4 934-1023): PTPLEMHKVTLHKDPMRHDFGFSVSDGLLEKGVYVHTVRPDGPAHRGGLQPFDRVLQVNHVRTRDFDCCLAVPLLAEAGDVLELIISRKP
Sequence of PDZRN4_1, Q6ZMN7 (Q6ZMN7 213-318): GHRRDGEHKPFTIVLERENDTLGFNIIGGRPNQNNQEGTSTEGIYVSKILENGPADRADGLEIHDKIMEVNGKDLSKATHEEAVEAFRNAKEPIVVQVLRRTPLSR
Sequence of Inadl_5, Q8NI35 (Q8NI35 673-780): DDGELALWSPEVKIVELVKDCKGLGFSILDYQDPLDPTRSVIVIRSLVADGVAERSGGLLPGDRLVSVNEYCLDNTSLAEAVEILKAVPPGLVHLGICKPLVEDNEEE
Sequence of DLG1_3, Q12959 (Q12959 457-571): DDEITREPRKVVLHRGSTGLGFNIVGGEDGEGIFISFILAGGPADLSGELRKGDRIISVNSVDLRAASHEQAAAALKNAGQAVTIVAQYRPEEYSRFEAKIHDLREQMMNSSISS
Sequence of MAGI2_4, Q86UL8 (Q86UL8 772-865): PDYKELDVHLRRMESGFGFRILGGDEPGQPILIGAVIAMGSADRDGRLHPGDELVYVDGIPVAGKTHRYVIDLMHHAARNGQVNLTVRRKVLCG

Row | Binder | pKd [1] | pKd [2] | pKd [3] | pKd [4] | pKd [5] | pKd [6] | pKd [7] | pKd [8] | pKd [9] | pKd [10] | pKd [11] | pKd [12] | pKd [13] | pKd [14] | pKd [15] | pKd [16] | pKd [17] | pKd [18] | pKd [19] | pKd [20] | also measured
1 | B1 | 3.9 | below the threshold | 3.66 | below the threshold | below the threshold | below the threshold | 3.53 | 3.69 | below the threshold | below the threshold | 3.93 | below the threshold | 4.1 | below the threshold | below the threshold | below the threshold | 3.82 | below the threshold | below the threshold | below the threshold | pKd [21]: 3.68; pKd [22]: below the threshold; pKd [23]: 3.48
2 | B2 | 3.7 | below the threshold | below the threshold | below the threshold | below the threshold | below the threshold | 4.49 | 4.53 | below the threshold | below the threshold | below the threshold | below the threshold | below the threshold | below the threshold | below the threshold | 3.93 | 3.83 | below the threshold | 3.67 | below the threshold | pKd [21]: 3.83; pKd [22]: 3.51; pKd [23]: below the threshold
3 | B3 | below the threshold | below the threshold | below the threshold | 4.92 | below the threshold | 4.43 | 3.92 | 5.07 | below the threshold | below the threshold | below the threshold | below the threshold | 4.25 | below the threshold | 5.32 | 3.65 | below the threshold | below the threshold | 4.86 | below the threshold | pKd [21]: below the threshold; pKd [22]: 4.15; pKd [23]: below the threshold
4 | B4 | below the threshold | below the threshold | below the threshold | below the threshold | below the threshold | below the threshold | below the threshold | below the threshold | below the threshold | below the threshold | below the threshold | below the threshold | below the threshold | below the threshold | 3.75 | below the threshold | below the threshold | below the threshold | below the threshold | below the threshold | pKd [21]: below the threshold; pKd [22]: below the threshold; pKd [23]: below the threshold
5 | B5 | 3.74 | below the threshold | below the threshold | below the threshold | below the threshold | below the threshold | 4.32 | below the threshold | below the threshold | below the threshold | below the threshold | below the threshold | below the threshold | below the threshold | 3.66 | below the threshold | below the threshold | below the threshold | below the threshold | below the threshold | pKd [21]: below the threshold; pKd [22]: 3.93; pKd [23]: below the threshold
6 | B6 | 3.56 | below the threshold | below the threshold | below the threshold | below the threshold | 4.03 | 3.76 | 4.71 | below the threshold | below the threshold | 3.57 | below the threshold | 4.03 | below the threshold | 3.49 | 4.98 | below the threshold | below the threshold | 4.88 | below the threshold | pKd [21]: 3.91; pKd [22]: 4.56; pKd [23]: below the threshold
